From the supplement of paper PMC11865577

What was measured:
Assay in all cases: pull-down binding Z-score (relative to library population); higher = stronger binding
[1] = system: G-clamp-N3 (biotin conjugate); details: RNA library: Library-1 (pre-miRNA loops + repeats)
Summary of the method: (§1)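 Binding is given as a Z-score against the library mean and standard deviation, calculated after removing the beads-only signal and averaging barcoded replicate probes without their highest and lowest values. Cy5- or Cy3-end-labelled RNA library (1 μg) was heat-folded in phosphate/NaCl/KCl buffer and incubated 60 min at 25 °C with streptavidin beads bearing 100 pmol of biotin-conjugated small molecule. After three washes, RNA eluted in hot SDS was hybridised to a DNA barcode microarray for 20 h at 55.5 °C.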

[2] = system: TO-3-N3 (biotin conjugate); details: RNA library: Library-2
Summary of the method: as §1

[3] = system: TO-3-N3-2 (biotin conjugate); details: RNA library: Library-2
Summary of the method: as §1

TO-N3 (biotin conjugate) = details: RNA library: Library-2
Summary of the method: as §1

[4] = system: TO-N3-2 (biotin conjugate); details: RNA library: Library-2
Summary of the method: as §1

| Sequence | pull-down binding Z-score [1] | pull-down binding Z-score [2] | pull-down binding Z-score [3] | pull-down binding Z-score (TO-N3 (biotin conjugate)) | pull-down binding Z-score [4] |
| --- | --- | --- | --- | --- | --- |
| GUCCGGGUGGGUUCCGGCA [hsa-mir-657] | -2.05 | 1.07 | 1.29 | 1.33 | 2.1 |
| GUGAACCUGAAUUUGCCUUGGGUUUCCU [hsa-mir-670] | -0.325 | -0.509 | -0.132 | 0.262 | 1.76 |
| UCCCCAGAAGCUGAGGAUUAGGGGA [hsa-mir-6503] | 1.93 | 0.0937 | -0.131 | -0.0188 | -0.108 |
| AUAGUUUGGGGCUCUGCCCUGCUAUGGGAUAACUAU [hsa-let-7a-3] | 0.889 | -0.227 | -0.115 | -0.227 | 0.141 |
| AUGGUGUUUGUGAGUUGAUUGACAUCGU [hsa-mir-6506] | -0.212 | -0.398 | -0.457 | -0.408 | 0.0463 |
| UUCAUUUUAUUUAUGAUGAG [hsa-mir-496] | 1.12 | -0.959 | -0.288 | -1.2 | -1.33 |
| UUGUUCGUUGCAUUUUUAGGAACAA [hsa-mir-3613] | 1.4 | -1.11 | -0.623 | -1.52 | -1.23 |
| GCCACAUGAGCUGGGCCUCGUGGGC [hsa-mir-770] | -0.657 | 0.237 | -0.342 | 0.189 | 0.565 |
| GAUGUUUCUGCCAGUUUAGCGUC [hsa-mir-505] | -0.68 | 0.0284 | -0.0968 | 0.0886 | 0.324 |
| UGUAAAUAACUACAAUUCUCUUAACUCCGUAGCAGUUGC [hsa-mir-7844] | -1.5 | -0.267 | -0.0721 | -0.11 | 0.177 |
| AUUUGCCAUCACCUUUACCUUUAAUGGCAAAA [hsa-mir-548av] | -0.985 | 0.0312 | -0.205 | -0.188 | -0.906 |
| CCAAAUCCUUUUCUGAUUUGG [hsa-mir-4520-2] | -0.824 | -0.645 | -0.574 | -1.03 | -1.69 |
| CACUCAGGCAGUGCCAUGAGC [hsa-mir-6811] | -0.12 | 0.249 | -0.366 | 0.408 | 0.422 |
| UUGGCGUAGUGAAAUAUAUAUUAAACACCAA [hsa-mir-16-2] | -0.484 | 0.128 | 0.371 | 0.0274 | 0.0267 |
| AGGUUCUGCUGGCUGAGAACCU [hsa-mir-3667] | 2.19 | -0.215 | -0.106 | -0.17 | 0.149 |
| CUGCAGGAAAGGGAAGACCAAGGCUUGCUGUCUGUCCAGUCUGCCACCCUACCCUGU [hsa-mir-1231] | -0.156 | -0.0839 | 0.108 | 0.788 | 1.54 |

| Sequence | pull-down binding Z-score [1] | pull-down binding Z-score [2] | pull-down binding Z-score [3] | pull-down binding Z-score (TO-N3 (biotin conjugate)) | pull-down binding Z-score [4] |
| --- | --- | --- | --- | --- | --- |
| CUGCUGAAUCUUCAGAAAGG [hsa-mir-3142] | -0.0627 | -0.432 | -0.178 | -0.164 | 0.135 |
| CCUGUAUGUCUCCCCGCAGCACCGUCAUCGU [hsa-mir-6774] | -1.39 | 0.498 | 0.182 | 0.785 | 0.832 |
| GUGUCCUGAAAUUCACAGGACUG [hsa-mir-4700] | 1.38 | 0.856 | 0.237 | 0.923 | 0.643 |
| GGCACUGGGUAUCGUAGGUGCC [hsa-mir-3116-1] | 2.06 | 0.661 | 0.127 | 0.377 | 0.718 |
| CUUGGCACCUUUGGCCUUAG [hsa-mir-4540] | 0.795 | 0.0499 | -0.125 | 0.112 | -0.0687 |
| CAGUGCACCUUCAUGAACCG [hsa-mir-938] | -1.11 | 0.249 | 0.209 | 0.758 | 1.14 |
| GUAGAUUUUAUGUCAC [hsa-mir-892b] | -0.748 | -0.000191 | -0.156 | -0.00927 | 0.0365 |
| AGCCCUGUUGUUGUCAGAUAGUGU [hsa-mir-550a-2] | -0.331 | 0.198 | 0.21 | 0.216 | 0.179 |
| GGAGGCAUGAAUGAGCCAUCUUUCCAAUGCCUUUC [hsa-mir-4743] | -1.03 | -0.573 | -0.332 | -0.118 | 0.952 |
| UUGCCCAA [hsa-mir-548bb] | 0.764 | -0.0547 | -0.317 | -0.211 | -0.332 |
| GGCUGGACAGGAGAGGGCUCACCCAGG [hsa-mir-6775] | 0.487 | 1.16 | 0.591 | 1.78 | 1.77 |
| CCCAGCCUUGGCGUUCAGGUGCUGAG [hsa-mir-3150b] | -0.3 | -0.0824 | -0.23 | -0.022 | 0.723 |
| GUGAUAGUAAUAAAGUCUCAU [hsa-mir-135a-2] | -0.286 | -0.314 | -0.218 | -0.32 | -0.0282 |
| UUGUGGCUUUGGGUGGAUAUUAAUCAGCCACAG [hsa-mir-383] | 0.747 | 0.257 | 0.274 | 0.0969 | 0.0594 |
| UUUUGACAUUACUUUCAAAGACAAAA [hsa-mir-548f-1] | -1.58 | -0.771 | -0.214 | -1.09 | -1.23 |
| GGAUGGCCAGGGAAGUAUGCCGGGCCUUGGCAUUUC [hsa-mir-7159] | 2.04 | 0.218 | 0.175 | 0.814 | 1.9 |
